Test [1] concerns the target hPD-L1-mFc: hPD-L1 extracellular domain (amino acids F19-T239) expressed with the Fc portion of mouse IgG2a at the C-terminus (human; mouse) (UniProt Q9NZQ7). The experiment in a line: blocking ELISA, 0.7 nM hPD-L1-mFc on plate-coated hPD1-hFc.
For test [2], the target named is human CD28 expressed with a C-terminal murine Fc tag (hCD28.mFc) (human). The experiment in a line: SPR Biacore 25 C, hCD28.mFc captured by anti-mFc, antibody injected. For orientation: SPR reads the build-up and loss of mass on a sensor chip optically.
Test [3] has as its target human PD-L1 expressed with a C-terminal myc-myc-hexahistidine tag (hPD-L1.mmH) (human). The experiment in a line: SPR Biacore 25 C, antibody captured by anti-hFc, hPD-L1.mmH injected.

Sequence of hPD-L1-mFc: hPD-L1 extracellular domain (amino acids F19-T239) expressed with the Fc portion of mouse IgG2a at the C-terminus (human; mouse) (Q9NZQ7 19-239 limits assumed): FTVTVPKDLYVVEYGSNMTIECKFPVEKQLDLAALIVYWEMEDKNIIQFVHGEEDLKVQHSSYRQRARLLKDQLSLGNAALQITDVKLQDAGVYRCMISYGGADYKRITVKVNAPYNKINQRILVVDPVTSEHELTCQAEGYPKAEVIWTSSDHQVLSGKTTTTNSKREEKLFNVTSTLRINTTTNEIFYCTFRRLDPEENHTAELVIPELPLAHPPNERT
Sequence of human PD-L1 expressed with a C-terminal myc-myc-hexahistidine tag (hPD-L1.mmH) (human) (chain, as listed by the source limits assumed): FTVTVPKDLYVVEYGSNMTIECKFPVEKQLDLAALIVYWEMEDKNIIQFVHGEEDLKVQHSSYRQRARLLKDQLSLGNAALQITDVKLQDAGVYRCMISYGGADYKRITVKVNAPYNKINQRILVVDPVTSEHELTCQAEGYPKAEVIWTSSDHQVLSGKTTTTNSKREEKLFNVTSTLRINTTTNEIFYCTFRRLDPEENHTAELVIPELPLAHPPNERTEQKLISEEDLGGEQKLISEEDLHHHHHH

Regarding Isotype control 1 (antibody), the % Blocking at 100 nM mAb in test [1] came out at 1%. In test [1], Isotype control 3 (antibody) displayed a % Blocking at 100 nM mAb of 4%. Substance Isotype control 2 (antibody) displayed a % Blocking at 100 nM mAb in test [1] of 1%. Turning to Isotype Control (antibody), the 90 nM mAb Bind (RU) in test [2] is -4.3 RU. In test [3], the 30 nM hPD-L1.mmH Bind (RU) amounted to 0.5 RU.

The values above are taken from patent US20250043002A1.
